From paper PMC5817723, “^99mTc-HYNIC-(tricine/EDDA)-FROP peptide for MCF-7 breast tumor targeting and imaging” (Journal of Biomedical Science, 2018)
“Also recorded” adds a separate entry of the source. Residues, ends and D or L forms follow the SMILES beside them. *: point of attachment. HYNIC = NNc1ccc(C(=O)*)cn1

Tests used:
[1] = In vitro stability in normal saline at room temperature; type: physicochemical; conditions: TLC, n = 3
Method: The radiochemical purity was determined by instant thin layer chromatography (ITLC) in different mobile phases such as methyl ethyl ketone (MEK), acetonitrile/water (50/50) and citrate solvent (0.1 M, pH 5.2) using a Lablogic mini scan TLC scanner (Sheffield, UK) and Laura image analysis software. In MEK, free ^99mTcO4^− migrated with the solvent front, while radiolabeled peptide remained at the application point. In the acetonitrile/water system, the colloids remained at the application point, while radiolabeled peptide migrated in front of solvent. The amount of labeled co-ligand was determined by citrate solvent, that free ^99mTcO4 Na and labeled co-ligand migrate in front of solvent while both RHT and labeled peptide (^99mTc-FROP) remind at the origin. A NaI (Tl) gamma detector (Delshid, Tehran, Iran) was used to for measurement of radioactivity.
(§1) The stability of ^99mTc-HYNIC-FROP in normal saline was evaluated using ITLC at various times (2, 4, 6 and 24 h) at room temperature. For serum stability, ^99mTc-HYNIC-FROP (30 μL) was incubated with freshly human plasma serum (90 μL) in triplicate at 37 °C. At 1 h of incubation, the plasma proteins were precipitated with a mixture of acetonitrile/ethanol (1:1 v/v) and centrifugation. The supernatant layer was filtered through a 0.22 μm filter and then the fraction was analyzed by RP-HPLC. Partition coefficient of ^99mTc-HYNIC-FROP was determined via method that previously was described.

[2] = Stability in human plasma serum, RP-HPLC; type: in vitro ADME; conditions: 37 °C, triplicate
Method: Reversed phase-HPLC was performed on a Knauer HPLC systems (Knauer HPLC, Berlin, Germany) using a Lablogic radioactivity gamma detector with a Eurospher 100–5 C-18, 4.6 × 250 mm (Knauer, Berlin, Germany) column with a pre-column. (Knauer HPLC, Berlin, Germany) HPLC was run using a gradient of 0.1% TFA in H2O (solvent A) and 0.1% TFA in CH3CN (solvent B) at a flow rate of 1 mL/min. A gradient with solvents A and B was run as follows: 0 min, 10% B; 0–10 min, 10–30% B; 10–20 min, 30–80% B; and 20–25 min, 80–100% B, for a total time of 30 min.
as §1

[3] = Partition coefficient between n-octanol and PBS; type: physicochemical; conditions: distribution between n-octanol and PBS; method of ref 22; mean ± SD; read-out: Log p (partition coefficient)
Method: as §1

MCF-7 cells = test: Saturation binding assay on MCF-7 cells; design: species or system human; conditions: saturation 30–250 nM, 30 min, nonlinear regression
Method: The cell-binding affinity of ^99mTc-HYNIC-FROP was assessed with saturation method. For determining of […] (Kd) and total number of binding sites (Bmax), ^99mTc-HYNIC-FROP was prepared in high radiochemical purity. MCF-7 cells were seeded into 24-well plates and incubated overnight. Then cells were incubated with various concentrations of radiolabeled peptide (30–250 nM) for 30 min. One dish was added blocking solution containing of 500-fold excess of highest concentration of ^99mTc-HYNIC-FROP. The cells were then washed with cold serum free medium to remove free radioactivity. The cells with bound radioactivity detached with trypsin and collected and radioactivity was measured. The (Kd) and (Bmax) value were calculated using Graphpad prism software based on specific binding of ^99mTc-HYNIC-FROP on MCF-7 cells.

CSCC[C@H](NC(=O)[C@H](CC(C)C)NC(=O)[C@H](CCC(=O)O)NC(=O)[C@H](Cc1ccc(O)cc1)NC(=O)[C@H](CC(=O)O)NC(=O)[C@@H](N)CCC(=O)O)C(=O)N[C@@H](CC(=O)O)C(=O)N[C@@H](CC(C)C)C(=O)N[C@@H](CC(C)C)C(=O)N[C@@H](C)C(=O)N[C@@H](Cc1ccc(O)cc1)C(=O)N[C@@H](CC(C)C)C(=O)N[C@@H](CCCCNC(=O)c1ccc(NN)nc1)C(=O)O [^99mTc-HYNIC-FROP, metal not drawn] (H-EDYELMDLLAYLK(HYNIC)-OH)
%RCP in normal saline ([1]; 2 h): 99.5 ± 0.4%
%RCP in normal saline ([1]; 4 h): 99.1 ± 0.9%
%RCP in normal saline ([1]; 6 h): 99 ± 0.8%
%RCP in normal saline ([1]; 24 h): 94.6 ± 2.7%
stability in human plasma serum ([2]; 30 μL in 90 μL fresh human plasma serum, 1 h, RP-HPLC radiodetection): stable; also recorded: the major radioactivity was still associated with ^99mTc-FROP
remaining at 1 h ([2]; abstract statement, human plasma serum, protein precipitation acetonitrile/ethanol 1:1, RP-HPLC): ~98%
logD [3]: -2.03 ± 0.03
Bmax (maximum number of binding sites) (MCF-7 cells; listed as 99mTc-HYNIC-(tricine-EDDA)-Lys-FROP): 4.5 ± 0.6 × 10^7 CPM/pMol
Bmax (maximum number of binding sites) (MCF-7 cells; listed as 99mTc-HYNIC-(tricine/EDDA)-FROP): (4.5±0.6)·10^7 CPM/pMol
